Assay results: the supplement of paper PMC6757056
± gives the standard deviation of the averaged measurements.

B1: library; a variant is named by its letters at N, in order (parent)
chain: GCUGUCACCGAGAAACUGUGAAGUAUAUCUUAAACCUGGGCACUUAAAAGAUAUAUGGAGUUAGUAGUGCAACCUGCUCGGUCUGAUGAGUCCNNNNNNGGACGAAACAGC

Assays:
cyclic di-GMP [1] = variants of: B1; experiment: normalized RNA/DNA level without ligand (relative to sTRSVctl = 100) (log10 (% of sTRSVctl)); HEK293T; ligand: cyclic di-GMP (c-di-GMP-II aptamer); higher = less ribozyme self-cleavage, higher mRNA level; details: reporter: mCherry (pCS4076), ligand present: no
In short: (§1)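 HEK293T cells were transfected with library plasmids carrying ribozyme switches linked to an mCherry reporter, or an eGFP reporter in some ligand experiments, at 4 µg per well of a 6-well plate, with any ligand added 1 h beforehand. After 72 h, total RNA was extracted with EDTA, reverse-transcribed, amplified, barcoded and sequenced. RNA level was defined as RNA reads over DNA reads, normalized to a spiked-in non-cleaving sequence or to the top-ranked sequences. That value was multiplied by 100 and converted to log10, the top set was 25 sequences, and only sequences with ≥100 DNA reads were retained.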

cyclic di-GMP [2] = variants of: B1; experiment: normalized RNA/DNA level with ligand (relative to sTRSVctl = 100) (log10 (% of sTRSVctl)); HEK293T; ligand: cyclic di-GMP (c-di-GMP-II aptamer); ligand concentration (+) RNA-Seq: 1 mM; higher = less ribozyme self-cleavage, higher mRNA level; details: reporter: mCherry (pCS4076), ligand present: yes
In short: as §1

Row | Variant | normalized RNA/DNA level without ligand (log10) (cyclic di-GMP [1]) | normalized RNA/DNA level with ligand (log10) (cyclic di-GMP [2])
1 | CCUCAU | 1.65 ± 0.064 | 1.81 ± 0.057
2 | CCUCAC | 1.698 ± 0.0058 | 1.85 ± 0.1
3 | GCUAUU | 1.568 ± 0.0067 | 1.74 ± 0.12
4 | GCUAUC | 1.53 ± 0.045 | 1.66 ± 0.13
5 | ACUCUA | 1.6 ± 0.046 | 1.77 ± 0.081
6 | ACUCUC | 1.77 ± 0.076 | 1.86 ± 0.12
7 | ACUCUG | 1.602 ± 0.0083 | 1.81 ± 0.096
8 | GCUCGG | 1.78 ± 0.018 | 1.88 ± 0.052
9 | GCUCGA | 1.57 ± 0.04 | 1.73 ± 0.099
10 | GCUCGC | 1.82 ± 0.042 | 1.87 ± 0.097
11 | CCUAAC | 1.66 ± 0.033 | 1.8 ± 0.097
12 | CCUAAA | 1.4 ± 0.07 | 1.61 ± 0.14
13 | CCUAAG | 1.56 ± 0.049 | 1.74 ± 0.095
14 | CCUAAU | 1.53 ± 0.042 | 1.73 ± 0.14
15 | ACUGCA | 1.64 ± 0.023 | 1.77 ± 0.1
16 | ACUGCG | 1.73 ± 0.069 | 1.83 ± 0.069
17 | ACUGCC | 1.744 ± 0.016 | 1.88 ± 0.12
18 | UCGGCC | 1.85 ± 0.024 | 1.95 ± 0.054
19 | UCGGCG | 1.87 ± 0.015 | 1.96 ± 0.084
20 | GCGGAU | 1.43 ± 0.097 | 1.63 ± 0.11
21 | ACGGCC | 1.78 ± 0.063 | 1.87 ± 0.13
22 | ACGGCU | 1.56 ± 0.018 | 1.75 ± 0.12
23 | ACGGCG | 1.75 ± 0.067 | 1.86 ± 0.1

Row | Variant | normalized RNA/DNA level without ligand (log10) (cyclic di-GMP [1]) | normalized RNA/DNA level with ligand (log10) (cyclic di-GMP [2])
24 | ACGGCA | 1.648 ± 0.011 | 1.77 ± 0.1
25 | ACUACC | 1.69 ± 0.04 | 1.86 ± 0.097
26 | ACUACU | 1.68 ± 0.041 | 1.82 ± 0.14
27 | ACUACG | 1.61 ± 0.022 | 1.81 ± 0.1
28 | CCUGCG | 1.8 ± 0.026 | 1.88 ± 0.13
29 | CCUGCA | 1.67 ± 0.056 | 1.84 ± 0.058
30 | CCUGCU | 1.698 ± 0.0032 | 1.84 ± 0.1
31 | GCUGUC | 1.43 ± 0.14 | 1.72 ± 0.024
32 | CCUGUU | 1.67 ± 0.019 | 1.86 ± 0.084
33 | CCUGUC | 1.69 ± 0.019 | 1.87 ± 0.089
34 | CCUGUG | 1.54 ± 0.12 | 1.76 ± 0.049
35 | UCGGUU | 1.61 ± 0.093 | 1.79 ± 0.082
36 | UCGGUG | 1.68 ± 0.049 | 1.78 ± 0.13
37 | GCUGAC | 1.47 ± 0.069 | 1.67 ± 0.1
38 | GCUGAU | 1.55 ± 0.061 | 1.72 ± 0.087
39 | GCUGAG | 1.5 ± 0.079 | 1.67 ± 0.069
40 | UCUCAC | 1.78 ± 0.018 | 1.87 ± 0.066
41 | UCUCAA | 1.659 ± 0.013 | 1.83 ± 0.12
42 | UCUCAU | 1.638 ± 0.0046 | 1.78 ± 0.061
43 | UCUCAG | 1.75 ± 0.073 | 1.89 ± 0.098
44 | ACUGGC | 1.61 ± 0.084 | 1.79 ± 0.12
45 | GCUGCC | 1.67 ± 0.067 | 1.83 ± 0.16
46 | GCUGCU | 1.682 ± 0.0098 | 1.8 ± 0.11

Row | Variant | normalized RNA/DNA level without ligand (log10) (cyclic di-GMP [1]) | normalized RNA/DNA level with ligand (log10) (cyclic di-GMP [2])
47 | UCGUAG | 1.63 ± 0.059 | 1.82 ± 0.11
48 | UCGUAU | 1.53 ± 0.068 | 1.76 ± 0.12
49 | UCGUAA | 1.44 ± 0.1 | 1.64 ± 0.15
50 | GCGUUA | 1.54 ± 0.054 | 1.75 ± 0.11
51 | GCGUUC | 1.34 ± 0.19 | 1.55 ± 0.13
52 | GCGUUG | 1.56 ± 0.042 | 1.75 ± 0.11
53 | ACUGAG | 1.54 ± 0.11 | 1.71 ± 0.031
54 | ACUGAC | 1.611 ± 0.012 | 1.77 ± 0.12
55 | GCGGCU | 1.75 ± 0.024 | 1.91 ± 0.14
56 | GCGGCC | 1.73 ± 0.039 | 1.86 ± 0.15
57 | GCGGCA | 1.82 ± 0.032 | 1.9 ± 0.12
58 | GCGGCG | 1.842 ± 0.0045 | 1.9 ± 0.057
59 | UCUCCA | 1.758 ± 0.012 | 1.85 ± 0.12
60 | UCUCCC | 1.81 ± 0.073 | 1.92 ± 0.14
61 | UCUCCU | 1.77 ± 0.003 | 1.91 ± 0.14
62 | UCUCCG | 1.839 ± 0.0029 | 1.94 ± 0.099
63 | ACGGAC | 1.52 ± 0.075 | 1.73 ± 0.09
64 | UCUCGA | 1.8 ± 0.036 | 1.86 ± 0.15
65 | UCUCGG | 1.9 ± 0.063 | 1.96 ± 0.13
66 | UCUCGC | 1.808 ± 0.017 | 1.88 ± 0.098
67 | UCUCGU | 1.69 ± 0.037 | 1.85 ± 0.075
68 | UCUAGC | 1.69 ± 0.023 | 1.88 ± 0.13
69 | UCUAGU | 1.66 ± 0.054 | 1.83 ± 0.057

Row | Variant | normalized RNA/DNA level without ligand (log10) (cyclic di-GMP [1]) | normalized RNA/DNA level with ligand (log10) (cyclic di-GMP [2])
70 | UCUAGA | 1.74 ± 0.021 | 1.88 ± 0.15
71 | UCUAGG | 1.81 ± 0.049 | 1.88 ± 0.12
72 | CCGUAG | 1.32 ± 0.11 | 1.55 ± 0.14
73 | CCGUAC | 1.62 ± 0.027 | 1.75 ± 0.11
74 | CCGUCA | 1.592 ± 0.009 | 1.79 ± 0.047
75 | CCGUCG | 1.68 ± 0.0046 | 1.82 ± 0.13
76 | CCGUCU | 1.6 ± 0.061 | 1.78 ± 0.12
77 | GCUACA | 1.583 ± 0.0028 | 1.79 ± 0.072
78 | GCUACC | 1.67 ± 0.065 | 1.84 ± 0.098
79 | GCUACU | 1.66 ± 0.019 | 1.81 ± 0.1
80 | CCGGGC | 1.821 ± 0.013 | 1.93 ± 0.12
81 | CCGGGA | 1.51 ± 0.068 | 1.69 ± 0.089
82 | CCGGGU | 1.69 ± 0.066 | 1.81 ± 0.15
83 | UCUGUG | 1.73 ± 0.051 | 1.91 ± 0.092
84 | UCUGUU | 1.636 ± 0.0046 | 1.82 ± 0.12
85 | UCUGUC | 1.75 ± 0.035 | 1.87 ± 0.1
86 | ACGUGC | 1.59 ± 0.036 | 1.8 ± 0.065
87 | UCUGGA | 1.58 ± 0.054 | 1.79 ± 0.1
88 | UCUGGC | 1.78 ± 0.025 | 1.88 ± 0.068
89 | UCUGGG | 1.74 ± 0.026 | 1.88 ± 0.059
90 | CCUAGA | 1.585 ± 0.0086 | 1.79 ± 0.074
91 | CCUAGG | 1.79 ± 0.045 | 1.84 ± 0.13
92 | CCUAGC | 1.6495 ± 0.00083 | 1.82 ± 0.056

Row | Variant | normalized RNA/DNA level without ligand (log10) (cyclic di-GMP [1]) | normalized RNA/DNA level with ligand (log10) (cyclic di-GMP [2])
93 | CCUAGU | 1.72 ± 0.02 | 1.85 ± 0.11
94 | GCGUGG | 1.71 ± 0.051 | 1.78 ± 0.14
95 | GCGUGC | 1.68 ± 0.0027 | 1.81 ± 0.14
96 | GCUAGG | 1.54 ± 0.12 | 1.7 ± 0.062
97 | GCUAGU | 1.58 ± 0.069 | 1.78 ± 0.086
98 | GCUAGC | 1.696 ± 0.0018 | 1.8 ± 0.17
99 | CCUGAC | 1.649 ± 0.011 | 1.78 ± 0.11
100 | CCUGAA | 1.32 ± 0.099 | 1.61 ± 0.077
101 | CCUGAG | 1.55 ± 0.077 | 1.76 ± 0.15
102 | CCUGAU | 1.6 ± 0.021 | 1.78 ± 0.14
103 | UCGUUA | 1.44 ± 0.076 | 1.63 ± 0.051
104 | UCGUUC | 1.739 ± 0.0071 | 1.88 ± 0.11
105 | UCGUUG | 1.61 ± 0.14 | 1.83 ± 0.096
106 | UCGUUU | 1.68 ± 0.042 | 1.85 ± 0.11
107 | CCUCCA | 1.68 ± 0.031 | 1.83 ± 0.088
108 | ACUAGU | 1.674 ± 0.011 | 1.8 ± 0.065
109 | ACUAGG | 1.52 ± 0.071 | 1.7 ± 0.066
110 | ACUAGC | 1.6 ± 0.048 | 1.77 ± 0.12
111 | ACUAGA | 1.41 ± 0.066 | 1.64 ± 0.12
112 | CCGGAG | 1.31 ± 0.13 | 1.52 ± 0.14
113 | UCUGAC | 1.677 ± 0.011 | 1.84 ± 0.12
114 | UCUGAG | 1.66 ± 0.056 | 1.78 ± 0.098
115 | UCUCUU | 1.74 ± 0.039 | 1.86 ± 0.089
